Biological target: OptoSTIM1 (CRY2 E281A) (Arabidopsis thaliana) (UniProt Q13586)
Assay: cell-based or functional assay

## OptoSTIM1 (CRY2 E281A) (from UniProt Q13586 238-668)
  activation half-maximal time (R-GECO1 level upon light stimulation): 62 s
  inactivation half time (R-GECO1 level after light removal): 7 min
